Measured values as given in patent US20210032353A1 (NATIONAL HEALTH RESEARCH INSTITUTES, published 2021).

T1: VEGFR3 (Flt-4)-IgD 6-7 (UniProt P35916 555-764, limits assumed)
T1 construct: domain: IgD6-7; also called R3-IgD6-7; VEGFR3-ED Ig D6-7-myc; not shown: myc tag (pCMV6-XL6-myc vector)
T1 sequence (looked up): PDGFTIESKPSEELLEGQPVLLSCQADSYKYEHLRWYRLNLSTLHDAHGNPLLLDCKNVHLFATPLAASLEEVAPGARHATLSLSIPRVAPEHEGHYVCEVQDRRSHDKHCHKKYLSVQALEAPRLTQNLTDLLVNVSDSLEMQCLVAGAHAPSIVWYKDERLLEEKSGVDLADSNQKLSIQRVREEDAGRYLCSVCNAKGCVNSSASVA

T2: R3-IgD4 (human, UniProt P35916)
T2 construct: recombinant fragment; also called immunoglobin-like domain 4 of VEGFR3
T2 sequence (receptor fragment, looked up): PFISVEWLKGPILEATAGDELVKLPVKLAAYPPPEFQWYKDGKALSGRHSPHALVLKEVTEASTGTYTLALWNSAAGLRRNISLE

T3: R3-IgD7 (human, UniProt P35916)
T3 construct: recombinant fragment; also called immunoglobin-like domain 7 of VEGFR3
T3 sequence (receptor fragment, looked up): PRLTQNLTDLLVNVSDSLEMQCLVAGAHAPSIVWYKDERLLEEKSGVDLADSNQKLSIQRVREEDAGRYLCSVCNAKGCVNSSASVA

T4: VEGFR3 IgD5 (individual recombinant immunoglobin-like domain 5 of VEGFR3) (UniProt P35916 422-552, limits assumed)
T4 construct: domain: IgD5
T4 sequence (looked up): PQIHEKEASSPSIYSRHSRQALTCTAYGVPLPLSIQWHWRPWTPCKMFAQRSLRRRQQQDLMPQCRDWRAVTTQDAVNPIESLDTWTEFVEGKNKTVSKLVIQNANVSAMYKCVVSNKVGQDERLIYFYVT

B1: R2C7-1 monoclonal antibody (antibody, V domains shown)
VH: EVQLQQSGPELVKPGASVKISCKASGYSFTDYFINWVIQRHGKSLEWVGRINPYNGGSFYNQKFKDKATLTVDKSSNIAHMELRSLASEDSAIYYCARSGGNGYDYWGQGTTLTVSS
VL: DIVMTQAAPSVPVIPGESVSISCRSSKSLLHSNGNTYLYWFLQRPGQSPQLLIYRMSNLASGVPDRFSGSGSGTAFTLRISRVEAEDVGVYYCMQHLEYPYTFGGGTKVEIK
notes: Mouse monoclonal antibody purified from hybridoma supernatant; An IgG2a isotype antibody served as its control; also called R2C7-1 mAb
B2: R2C9-11 monoclonal antibody (antibody, V domains shown)
VH: QVQLQQPGAELVKPGASVKLSCKASGYTFTSYWMHWVKQRPGQGLEWIGEINPSNGRTNYNEKFKSKATLTVDKSSSTAYMQLSSLTSEDSAVYYCANLYFDVWGAGTTVTVSS
VL: DIVMTQSPSSLSVSAGEKVTMSCKSSQNLLNSGNQKYYLAWYQQKPGQPPKLLIYGASIRESGVPDRFIGSGSGTDFTLTISSVQAEDLAVYFCQSDHSYPYTFGGGTKLEIK
notes: Mouse monoclonal antibody purified from hybridoma supernatant; An IgG2a isotype antibody served as its control; also called R2C9-11 mAb

Tests used:
VEGFR3 (Flt-4)-IgD 6-7 = molecular target: T1, VEGFR3 (Flt-4)-IgD 6-7; assay: Biacore; antibody as flow analyte, Flt 4-IgD6-7 as ligand
R3-IgD4 [1] = molecular target: T2, R3-IgD4; assay: cell-based competitive ELISA: R2C7-1 absorbed with the soluble domain, then bound to 293T/VEGFR3 cells, OD405
Procedure: (§1) Panel A, Cell-based competitive. ELISA. HEK293T cells expressing VEGFR3 (293T/VEGFR3) were coated in 96-well plates. The optimal concentrations of R2C7-1 and R2C9-11 mAbs were determined as described previously (data now shown). The optimal concentrations of R2C7-1 and R2C9-11 mAbs were absorbed with the designed doses of the individual immunoglobin-like domains of VEGFR3 (R3-IgDs) antigens, as indicated. The bound antibodies were immune-probed with secondary antibody conjugated with HRP, visualized by addition of ABTS, and measured at OD₄₀₅ using a microplate reader (SpectraMax). Data are represented as means±S.D. of percentage of isotype control (CTL) in triplicate. The epitope locations of R2C7-1 and R2C9-11 on the VEGFR3 antigen are indicated by the black lines spanning IgD6 in the schematics. Panel B, Native gel electrophoresis. The whole extracellular domain (R3-IgD1-7), domain 3-4 (R3-IgD3-4) and domain 6-7 (R3-IgD6-7) were constructed, expressed in the E. coli, and purified using the anti-Myc affinity purification system. The purity and molecular weight of each recombinant protein were visualized with a standard Western blot using anti-Myc antibody as probe (left). The binding of R2C7-1 and R2C9-11 to the VEGFR3 truncated antigens was evaluated with native gel electrophoresis to confirm the epitopes of R2C7-1 and R2C9-11 mAbs (middle and right, respectively).
(§2) The same methodology was adopted to define the epitopes of the antibodies on VEGFR3. To determine the optimal concentrations of the antibodies for VEGFR3, HEK293T/VEGFR3 transfectants were used as targets (data not shown). Subsequently, the antibodies with optimal concentrations were absorbed with individual recombinant extracellular domains of VEGFR3 (R3-IgDs) for competing the binding epitopes. Similarly, their major epitopes were both located in IgD6, but not in IgD7, of VEGFR3. To conform this finding, Western blotting analysis of different recombinant IgD proteins was carried out using native gel electrophoresis.

R3-IgD4 [2] = molecular target: T2, R3-IgD4; assay: cell-based competitive ELISA: R2C9-11 absorbed with the soluble domain, then bound to 293T/VEGFR3 cells, OD405
Procedure: as §1, §2

R3-IgD7 = molecular target: T3, R3-IgD7; assay: as above
Procedure: as §1, §2

[3] = molecular target: T4, VEGFR3 IgD5 (individual recombinant …); assay: as above
Procedure: as §1, §2

Binder | koff (VEGFR3 (Flt-4)-IgD 6-7) [s⁻¹] | kon (VEGFR3 (Flt-4)-IgD 6-7) [M⁻¹ s⁻¹] | binding result (R3-IgD4 [1]) | binding result (R3-IgD4 [2]) | binding result (R3-IgD7) | binding result [3]
B1 | 0.0037 | 280000 | no binding (tested: 10 (unit not printed on the sheet)) | – | – | –
B2 | – | – | – | no binding (tested: 10 (unit not printed on the sheet)) | no binding (tested: 10 (unit not printed on the sheet)) | no binding (tested: 10 (unit not printed on the sheet))
